Experimental data taken from publication PMC4454446.
Read-outs that look alike come from different tables or passages of the source. Blank lines part the entries; values can stand above or below the molecule they belong to.

Columns and labels:
[1] = target: chicken bestrophin-1 crystallization construct, amino acids 1-405 (Best1_(cryst)) (chicken (Gallus gallus)); experiment: crystal structure
[2] = target: chicken bestrophin-1 crystallization construct, amino acids 1-405 (Best1_(cryst)) (chicken (Gallus gallus)); experiment: SEC
[3] = target: chicken bestrophin-1 crystallization construct, amino acids 1-405 (Best1_(cryst)) (chicken (Gallus gallus)); experiment: SEC; remark: listed apart in the source

stoichiometry N [1]: 5
Molecule: chicken bestrophin-1 crystallization construct, amino acids 1-405 (Best1_(cryst)) (domain or fragment)

Kd [2]: 0.015 µM | Kd [3]: 0.35 µM
B1: Fab fragment of mouse monoclonal antibody 10D10 (Fab, V domains shown)
VH: QVQLQQSGPELVRPGASVKMSCKASGYTFTNYWMHWVKQRPGQALEWIGMIDPSKSETTLNQKFRGKATLNVDKSSNTAYMQLSSLTSEDSAVYYCAREVYYFDYWGQGTTLTVSS
VL: DIQMTQSPASLSASVGETVTITCRASENIYSYLTWYQQKQGKSPQLLVYNAKTLTEGVPSRFSGSGSGTQFSLKINSLQPEDFGGYFCQHHYGTPPTFGGGTKLEVK
